Experimental data taken from US20210206849A1 (UNIVERSITY OF CONNECTICUT, published 2021).

Legend:
Assay in all cases: flow cytometry, biotinylated Skint8-Ig and streptavidin-PE on transfected HEK-293 cells
[1] = biological target: T1, mouse CD28 on transfected HEK-293 cells (mouse, UniProt P31041 20-218)
T1 construct: whole, on cells
T1 sequence (looked up): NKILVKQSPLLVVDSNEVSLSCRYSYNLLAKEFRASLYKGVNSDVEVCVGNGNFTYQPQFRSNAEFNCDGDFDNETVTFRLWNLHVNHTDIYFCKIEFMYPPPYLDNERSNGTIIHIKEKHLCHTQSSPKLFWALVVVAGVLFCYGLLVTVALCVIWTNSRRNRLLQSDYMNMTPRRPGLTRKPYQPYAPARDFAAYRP
Procedure: (§1) FIG. 15. The expression pattern of the Skint8 putative receptor. (A, B) Spleen cells were harvested from C57BL/6 mice. To obtain activated T cells, the spleen cells were incubated with anti-CD3 (1 μg/ml) and anti-CD28 (0.5 μg/ml) antibodies for 3 days. To obtain activated B cells, monocytes and DCs, the spleen cells were incubated with LPS (10 μg/ml) for 3 days. The freshly harvested and activated immune cells were stained with biotinylated Skint8-Ig or control Ig, followed by streptavidin-PE, as well as anti-CD4, CD8, B220, CD11b, or CD11c antibodies to identify the immune cells. (A) Representative flow cytometric profiles and (B) Statistical analysis showing the binding of Skint8-Ig or control Ig to freshly harvested and activated immune cells. (B) Data are presented as relative fluorescence intensity (RFI) for cell binding of Skint8-Ig versus control Ig. (C) HEK-293 cells were transfected with an expression vector containing the murine PD-, CD28, BTLA, CTLA-4, or ICOS gene and screened for cells stably expressing each gene. The transfected cells were stained with antibody against the respective PD-1, CD28, BTLA, CTLA-4, or ICOS protein (open histograms) or isotype antibody (shaded histograms). Representative flow cytometric profiles showing the expression of each receptor. (D) PD-, CD28, BTLA, CTLA-4, or ICOS gene-transfected HEK-293 cells were stained with biotinylated Skint8-Ig or control Ig, followed by streptavidin-PE. Representative flow cytometric profiles showing the binding of Skint8-Ig (open histograms) or control Ig protein (shaded histograms) to the transfected cells. The data are representative of 3 independent experiments.
(§2) Single cell suspensions of organs were stained with the fluorochrome-conjugated antibodies protein as described (38-41). Direct or indirect staining of fluorochrome-conjugated antibodies included: CD4, CD8, B220, CD11c, CD11b, F4/80, CD69, CD44, CD62L, IFNγ, TNFα, IL-2, IL-10, CD28, CTLA-4, PD-1, BTLA, and ICOS (BioLegend, or BD Biosciences, San Jose, Calif., San Diego, Calif.). Skint8-g, Skint8 IgV-Ig or Skint8 IgC-Ig proteins were biotinylated with sulfo-NHS-LC-Biotin (Pierce) and detected by streptavidin-PE. The samples were analyzed on a FACSCalibur or LSRFortessa X-20 Cell Analyzer (BD Biosciences). Data analysis was done using FlowJo software (Ashland, Oreg.).

[2] = biological target: T2, mouse CTLA-4 on transfected HEK-293 cells (mouse, UniProt P09793 36-223)
T2 construct: whole, on cells
Procedure: as §1, §2

[3] = biological target: T3, mouse PD-1 on transfected HEK-293 cells (mouse, UniProt Q02242 25-288)
T3 construct: whole, on cells
T3 sequence (looked up): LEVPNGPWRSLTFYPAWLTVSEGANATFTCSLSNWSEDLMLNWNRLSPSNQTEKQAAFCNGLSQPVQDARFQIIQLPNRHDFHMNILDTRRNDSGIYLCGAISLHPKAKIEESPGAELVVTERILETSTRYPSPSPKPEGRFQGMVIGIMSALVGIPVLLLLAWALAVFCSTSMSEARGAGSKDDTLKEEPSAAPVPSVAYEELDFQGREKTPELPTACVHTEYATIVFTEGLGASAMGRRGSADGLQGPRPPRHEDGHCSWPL
Procedure: as §1, §2

[4] = biological target: T4, mouse BTLA on transfected HEK-293 cells (mouse, UniProt Q7TSA3 30-306)
T4 construct: whole, on cells
T4 sequence (looked up): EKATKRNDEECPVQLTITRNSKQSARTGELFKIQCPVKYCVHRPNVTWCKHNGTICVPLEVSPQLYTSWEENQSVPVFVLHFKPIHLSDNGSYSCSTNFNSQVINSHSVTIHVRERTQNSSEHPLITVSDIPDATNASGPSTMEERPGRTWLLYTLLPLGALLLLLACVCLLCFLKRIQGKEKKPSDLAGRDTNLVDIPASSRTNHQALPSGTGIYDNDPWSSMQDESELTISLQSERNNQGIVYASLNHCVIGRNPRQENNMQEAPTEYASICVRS
Procedure: as §1, §2

[5] = biological target: T5, mouse ICOS on transfected HEK-293 cells (mouse, UniProt Q9WVS0 21-200)
T5 construct: whole, on cells
T5 sequence (looked up): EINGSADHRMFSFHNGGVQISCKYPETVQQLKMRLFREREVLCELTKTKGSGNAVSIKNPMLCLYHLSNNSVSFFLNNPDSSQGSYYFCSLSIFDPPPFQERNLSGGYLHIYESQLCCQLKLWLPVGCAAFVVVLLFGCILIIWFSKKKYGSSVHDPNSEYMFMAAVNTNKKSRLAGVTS
Procedure: as §1, §2

Measured: binding result

B1: Mouse Skint8-Ig fusion protein (Fc fusion)
chain: EKLRVTTPTRHLLARVGGQAELSCQVIPPHSVMHMEVRWFRSGHSQPVYLYRGGHKMSEEAAPEYANRTEFVKEAIGEGKVSLRIYNINILDDGPYQCSFNDSGFIDVAIMNLNVTAVGLETEIHVQAPDADGVMVECNTGGWFPRPQMEWRDSKGATLPHSLKSYSQDEARFFHMKMTLLLTNMSHGSIICCISNPVTGEEKQTSIIPRGPTIKPCPPCKCPAPNLLGGPSVFIFPPKIKDVLMISLSPIVTCVVVDVSEDDPDVQISWFVNNVEVHTAQTQTHREDYNSTLRVVSALPIQHQDWMSGKEFKCKVNNKDLPAPIERTISKPKGSVRAPQVYVLPPPEEEMTKKQVTLTCMVTDFMPEDIYVEWTNNGKTELNYKNTEPVLDSDGSYFMYSKLRVEKKNWVERNSYSCSVVHEGLHNHHTTKSFSRTPGK
modifications: biotinylated with sulfo-NHS-LC-Biotin in the flow cytometry assays (sites not given)
notes: Made in HEK-293 cells; also called Skint8-IgG Fc
no binding: all assays above
